# Earlier results in PMC2663012.
# Molecular target: PKR (Homo sapiens) (UniProt P19525)
# Assay: analytical ultracentrifugation
substance,measurement,value
PKR (from UniProt P19525),Kd,450 µM
